Results reported in article PMC8602451.

Legend:
Assay in all cases: TurboID proximity labelling, streptavidin pull-down, LC-MS
Settings in all cases: U2OS stable cell lines; 50 μM biotin for 2 h; read off a plot
EXOSC9 = molecular target: EXOSC9
XAB2 = XAB2 (UniProt Q9HCS7)
RAD54L2 = molecular target: RAD54L2
SNW1 = SNW1 (UniProt Q13573)
PIAS2 = PIAS2 (UniProt O75928)
RBM22 = molecular target: RBM22
SIMC1 = molecular target: SIMC1
PIAS1 = PIAS1 (UniProt O75925)
GATAD2B = GATAD2B (UniProt Q8WXI9)
FUS = molecular target: FUS
PIAS3 = PIAS3 (UniProt Q9Y6X2)
Chain of UniProt Q9Y6X2 (Q9Y6X2 whole entry): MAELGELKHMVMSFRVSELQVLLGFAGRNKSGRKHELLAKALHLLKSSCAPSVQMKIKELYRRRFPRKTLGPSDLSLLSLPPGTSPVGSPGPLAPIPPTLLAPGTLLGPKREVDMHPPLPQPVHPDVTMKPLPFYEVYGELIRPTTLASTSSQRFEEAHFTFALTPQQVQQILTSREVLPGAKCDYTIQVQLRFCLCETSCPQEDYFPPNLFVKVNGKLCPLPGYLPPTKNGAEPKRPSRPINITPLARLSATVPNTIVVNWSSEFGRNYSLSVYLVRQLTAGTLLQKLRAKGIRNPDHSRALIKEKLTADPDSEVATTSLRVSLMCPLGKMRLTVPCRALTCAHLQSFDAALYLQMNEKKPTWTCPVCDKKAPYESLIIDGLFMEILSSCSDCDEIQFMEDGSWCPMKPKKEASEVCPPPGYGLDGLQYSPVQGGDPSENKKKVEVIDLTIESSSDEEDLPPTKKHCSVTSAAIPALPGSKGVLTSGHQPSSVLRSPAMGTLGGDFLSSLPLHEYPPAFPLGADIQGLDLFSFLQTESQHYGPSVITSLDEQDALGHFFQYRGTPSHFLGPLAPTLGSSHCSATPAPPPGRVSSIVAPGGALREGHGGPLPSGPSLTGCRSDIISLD

ZNF280B = ZNF280B (UniProt Q86YH2)
Chain of UniProt Q86YH2 (Q86YH2 whole entry): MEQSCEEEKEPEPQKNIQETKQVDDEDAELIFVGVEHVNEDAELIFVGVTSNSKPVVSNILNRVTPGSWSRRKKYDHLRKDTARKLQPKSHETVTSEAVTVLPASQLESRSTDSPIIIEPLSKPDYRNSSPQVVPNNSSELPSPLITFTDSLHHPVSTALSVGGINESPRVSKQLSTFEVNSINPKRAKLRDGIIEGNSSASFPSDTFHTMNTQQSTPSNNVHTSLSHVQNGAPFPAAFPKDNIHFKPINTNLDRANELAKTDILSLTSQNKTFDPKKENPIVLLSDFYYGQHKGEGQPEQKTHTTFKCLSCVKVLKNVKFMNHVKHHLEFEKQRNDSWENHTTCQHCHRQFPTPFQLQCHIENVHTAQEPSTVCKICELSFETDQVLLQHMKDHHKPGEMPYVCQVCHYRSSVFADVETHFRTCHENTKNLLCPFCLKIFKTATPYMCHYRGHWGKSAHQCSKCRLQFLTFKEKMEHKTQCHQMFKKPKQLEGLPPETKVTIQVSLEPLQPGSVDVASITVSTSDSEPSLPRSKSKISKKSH

PIAS4 = PIAS4 (UniProt Q8N2W9)
Chain of UniProt Q8N2W9 (Q8N2W9 whole entry): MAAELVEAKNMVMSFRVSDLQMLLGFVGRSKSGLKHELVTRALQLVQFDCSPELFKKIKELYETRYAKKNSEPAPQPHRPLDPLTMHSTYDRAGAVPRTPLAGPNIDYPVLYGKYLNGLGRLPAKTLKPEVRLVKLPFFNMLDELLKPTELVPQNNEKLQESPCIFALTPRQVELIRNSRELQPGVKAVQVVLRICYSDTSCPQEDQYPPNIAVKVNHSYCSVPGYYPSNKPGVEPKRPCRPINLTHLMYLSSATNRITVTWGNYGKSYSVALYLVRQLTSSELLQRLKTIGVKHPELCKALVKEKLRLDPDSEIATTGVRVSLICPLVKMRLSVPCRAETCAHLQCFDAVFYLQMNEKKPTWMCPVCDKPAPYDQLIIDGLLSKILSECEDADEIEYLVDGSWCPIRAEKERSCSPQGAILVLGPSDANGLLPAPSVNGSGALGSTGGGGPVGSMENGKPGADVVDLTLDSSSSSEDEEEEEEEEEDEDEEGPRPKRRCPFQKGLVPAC

DAXX = molecular target: DAXX
IRF2BP2 = IRF2BP2 (UniProt Q7Z5L9)
HSPA8 = molecular target: HSPA8
ZNF280A = molecular target: ZNF280A
TRIM33 = TRIM33 (UniProt Q9UPN9)
TRIM24 = TRIM24 (UniProt O15164)
Chain of UniProt O15164 (O15164 whole entry): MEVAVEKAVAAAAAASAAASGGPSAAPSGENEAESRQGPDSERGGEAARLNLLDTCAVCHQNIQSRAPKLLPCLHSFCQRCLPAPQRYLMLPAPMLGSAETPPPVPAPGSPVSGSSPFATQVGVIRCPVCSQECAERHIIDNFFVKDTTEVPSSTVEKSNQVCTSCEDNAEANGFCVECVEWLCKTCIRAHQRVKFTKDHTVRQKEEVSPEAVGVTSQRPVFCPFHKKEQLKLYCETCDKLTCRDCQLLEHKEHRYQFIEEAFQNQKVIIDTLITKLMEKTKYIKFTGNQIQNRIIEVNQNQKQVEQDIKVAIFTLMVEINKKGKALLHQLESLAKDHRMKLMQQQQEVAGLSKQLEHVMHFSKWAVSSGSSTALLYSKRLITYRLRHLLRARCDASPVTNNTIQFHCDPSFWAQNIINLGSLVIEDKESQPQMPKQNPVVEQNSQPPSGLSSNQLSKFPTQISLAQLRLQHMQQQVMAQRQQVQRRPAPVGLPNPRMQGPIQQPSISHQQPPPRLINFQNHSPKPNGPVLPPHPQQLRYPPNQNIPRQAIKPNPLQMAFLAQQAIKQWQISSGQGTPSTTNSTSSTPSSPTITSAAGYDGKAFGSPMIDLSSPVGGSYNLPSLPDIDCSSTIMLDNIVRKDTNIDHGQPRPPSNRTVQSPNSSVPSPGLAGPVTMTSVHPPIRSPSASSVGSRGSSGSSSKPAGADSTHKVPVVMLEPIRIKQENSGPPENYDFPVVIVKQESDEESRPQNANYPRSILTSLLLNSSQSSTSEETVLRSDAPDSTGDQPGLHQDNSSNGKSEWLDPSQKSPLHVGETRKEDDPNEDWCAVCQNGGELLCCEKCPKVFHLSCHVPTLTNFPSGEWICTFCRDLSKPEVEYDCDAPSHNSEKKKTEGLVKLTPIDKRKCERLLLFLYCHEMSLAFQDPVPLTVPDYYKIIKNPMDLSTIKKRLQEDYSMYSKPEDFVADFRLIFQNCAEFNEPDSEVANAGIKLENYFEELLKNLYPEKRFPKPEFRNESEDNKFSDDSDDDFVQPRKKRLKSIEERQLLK

Chain of UniProt Q9HCS7 (Q9HCS7 whole entry): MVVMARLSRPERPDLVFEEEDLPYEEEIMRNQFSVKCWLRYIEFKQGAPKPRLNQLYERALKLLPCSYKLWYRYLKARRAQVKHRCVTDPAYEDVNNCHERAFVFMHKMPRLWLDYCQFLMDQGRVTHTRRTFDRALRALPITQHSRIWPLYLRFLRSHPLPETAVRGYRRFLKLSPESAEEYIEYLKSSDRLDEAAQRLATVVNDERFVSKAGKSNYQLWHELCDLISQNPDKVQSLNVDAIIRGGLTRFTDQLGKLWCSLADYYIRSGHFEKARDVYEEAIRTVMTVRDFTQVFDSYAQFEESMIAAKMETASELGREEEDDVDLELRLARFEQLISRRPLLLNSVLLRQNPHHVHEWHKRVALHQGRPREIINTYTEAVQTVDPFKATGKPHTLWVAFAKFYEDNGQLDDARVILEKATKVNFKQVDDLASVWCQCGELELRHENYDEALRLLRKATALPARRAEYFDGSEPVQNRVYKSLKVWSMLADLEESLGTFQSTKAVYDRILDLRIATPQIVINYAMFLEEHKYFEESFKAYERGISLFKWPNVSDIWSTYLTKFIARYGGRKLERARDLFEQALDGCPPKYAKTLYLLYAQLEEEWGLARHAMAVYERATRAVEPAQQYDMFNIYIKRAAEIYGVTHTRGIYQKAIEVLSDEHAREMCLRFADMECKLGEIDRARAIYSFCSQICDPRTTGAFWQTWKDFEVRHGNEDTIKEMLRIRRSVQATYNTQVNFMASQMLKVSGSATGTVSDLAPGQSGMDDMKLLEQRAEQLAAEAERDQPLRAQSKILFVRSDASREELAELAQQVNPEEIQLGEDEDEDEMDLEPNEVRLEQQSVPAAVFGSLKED
Chain of UniProt O75928 (O75928 whole entry): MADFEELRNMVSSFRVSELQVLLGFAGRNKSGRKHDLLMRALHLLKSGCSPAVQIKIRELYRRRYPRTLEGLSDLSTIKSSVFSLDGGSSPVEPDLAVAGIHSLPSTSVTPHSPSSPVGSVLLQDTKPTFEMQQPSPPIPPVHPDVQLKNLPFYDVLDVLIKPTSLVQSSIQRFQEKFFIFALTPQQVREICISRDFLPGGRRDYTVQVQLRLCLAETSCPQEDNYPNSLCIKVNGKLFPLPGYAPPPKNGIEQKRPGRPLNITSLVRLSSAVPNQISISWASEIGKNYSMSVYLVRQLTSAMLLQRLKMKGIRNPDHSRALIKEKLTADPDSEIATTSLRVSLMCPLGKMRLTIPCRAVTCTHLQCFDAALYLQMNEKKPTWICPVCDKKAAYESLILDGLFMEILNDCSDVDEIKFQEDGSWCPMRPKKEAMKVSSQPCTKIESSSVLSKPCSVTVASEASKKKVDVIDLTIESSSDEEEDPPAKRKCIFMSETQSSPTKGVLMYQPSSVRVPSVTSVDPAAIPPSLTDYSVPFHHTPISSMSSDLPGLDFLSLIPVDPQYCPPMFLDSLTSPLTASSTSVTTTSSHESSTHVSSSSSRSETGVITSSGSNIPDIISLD
Chain of UniProt Q13573 (Q13573 whole entry): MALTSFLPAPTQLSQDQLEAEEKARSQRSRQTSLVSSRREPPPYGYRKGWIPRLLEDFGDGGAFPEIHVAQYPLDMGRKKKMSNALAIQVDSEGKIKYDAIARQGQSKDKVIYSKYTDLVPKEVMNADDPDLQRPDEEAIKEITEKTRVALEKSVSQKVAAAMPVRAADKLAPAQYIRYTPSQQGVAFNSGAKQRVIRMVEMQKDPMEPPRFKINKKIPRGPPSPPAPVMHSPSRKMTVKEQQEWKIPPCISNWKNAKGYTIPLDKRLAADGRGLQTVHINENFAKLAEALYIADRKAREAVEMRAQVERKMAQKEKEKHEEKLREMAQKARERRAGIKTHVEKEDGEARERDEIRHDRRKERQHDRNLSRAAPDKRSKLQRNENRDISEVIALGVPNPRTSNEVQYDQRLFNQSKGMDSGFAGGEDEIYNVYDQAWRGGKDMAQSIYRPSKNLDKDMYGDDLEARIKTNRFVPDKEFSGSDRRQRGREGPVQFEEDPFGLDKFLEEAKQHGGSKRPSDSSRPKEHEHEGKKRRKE

other: Log2 LFQ ratio (TurboID-PML WT / TurboID-PML 3MAS) (EXOSC9): 1.8 Log2 LFQ
other: Log2 LFQ ratio (TurboID-PML WT / TurboID-PML 3MAS) (XAB2): 0.1 Log2 LFQ
other: Log2 LFQ ratio (TurboID-PML WT / TurboID-PML 3MAS) (RAD54L2): 5.4 Log2 LFQ
other: Log2 LFQ ratio (TurboID-PML WT / TurboID-PML 3MAS) (SNW1): 0.58 Log2 LFQ
other: Log2 LFQ ratio (TurboID-PML WT / TurboID-PML 3MAS) (PIAS2): 2.3 Log2 LFQ
other: Log2 LFQ ratio (TurboID-PML WT / TurboID-PML 3MAS) (RBM22): 3.5 Log2 LFQ
other: Log2 LFQ ratio (TurboID-PML WT / TurboID-PML 3MAS) (SIMC1): 5.9 Log2 LFQ
other: Log2 LFQ ratio (TurboID-PML WT / TurboID-PML 3MAS) (PIAS1): 3.5 Log2 LFQ
other: Log2 LFQ ratio (TurboID-PML WT / TurboID-PML 3MAS) (GATAD2B): 1.4 Log2 LFQ
other: Log2 LFQ ratio (TurboID-PML WT / TurboID-PML 3MAS) (FUS): 4.5 Log2 LFQ
other: Log2 LFQ ratio (TurboID-PML WT / TurboID-PML 3MAS) (PIAS3): 3.6 Log2 LFQ
other: Log2 LFQ ratio (TurboID-PML WT / TurboID-PML 3MAS) (ZNF280B): 4.8 Log2 LFQ
other: Log2 LFQ ratio (TurboID-PML WT / TurboID-PML 3MAS) (PIAS4): 3.7 Log2 LFQ
other: Log2 LFQ ratio (TurboID-PML WT / TurboID-PML 3MAS) (DAXX): 2.3 Log2 LFQ
other: Log2 LFQ ratio (TurboID-PML WT / TurboID-PML 3MAS) (IRF2BP2): 0.15 Log2 LFQ
other: Log2 LFQ ratio (TurboID-PML WT / TurboID-PML 3MAS) (HSPA8): 0.55 Log2 LFQ
other: Log2 LFQ ratio (TurboID-PML WT / TurboID-PML 3MAS) (ZNF280A): 2.9 Log2 LFQ
other: Log2 LFQ ratio (TurboID-PML WT / TurboID-PML 3MAS) (TRIM33): 3.4 Log2 LFQ
other: Log2 LFQ ratio (TurboID-PML WT / TurboID-PML 3MAS) (TRIM24): 3.4 Log2 LFQ
Substance: FLTbID-PML^WT (from UniProt P29590-12) 3MAS (K65; K160; K490 and SIM; replacement residues not printed)
